Data from US20110117082A1 (SHANGHAI FUDAN ZHANGJIANG BIO PHARMACEUTICAL, published 2011).

B1: LT28-171 (lymphotoxin) (ligand, UniProt P01374 62-205, looked up)
chain: KPAAHLIGDPSKQNSLLWRANTDRAFLQDGFSLSNNSLLVPTSGIYFVYSQVVFSGKAYSPKATSSPLYLAHEVQLFSSQYPFHVPLLSSQKMVYPGLQEPWLHSMYHGAAFQLTQGDQLSTHTDGIPHLVLSPSTVFFGAFAL
notes: range 28-171; these probably count on the mature protein (171 residues), not on the precursor
B2: wild-type soluble human TNFRp75:Fc fusion protein (ENBREL from AMGEN) (Fc fusion, not shown: a dimerising Fc or GST)
chain: LPAQVAFTPYAPEPGSTCRLREYYDQTAQMCCSKCSPGQHAKVFCTKTSDTVCDSCEDSTYTQLWNWVPECLSCGSRCSSDQVETQACTREQNRICTCRPGWYCALSKQEGCRLCAPLRKCRPGFGVARPGTETSDVVCKPCAPGTFSNTTSSTDICRPHQICNVVAIPGNASMDAVCTSTSPTRSMAPGAVHLPQPVSTRSQHTQPTPEPSTAPSTSFLLPMGPSPPAEGSTGD

Tests used:
LT28-171 (lymphotoxin) [1] = biological target: T1, LT28-171 (lymphotoxin) (UniProt P01374); assay: cell-based or functional assay
T1 sequence (looked up): B1 chain

[2] = biological target: tumor necrosis factor α (TNFα) (UniProt P01375); assay: cell-based or functional assay
tumor necrosis factor α (TNFα), sequence (P01375 77-233 limits assumed): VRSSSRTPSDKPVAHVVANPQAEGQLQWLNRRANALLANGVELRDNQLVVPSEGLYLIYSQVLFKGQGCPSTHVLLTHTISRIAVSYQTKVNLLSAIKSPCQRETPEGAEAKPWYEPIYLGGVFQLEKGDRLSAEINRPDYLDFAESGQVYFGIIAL

[3] = biological target: B2; assay: SPR, Biacore3000, receptor:Fc amine-coupled to CM5 chip, ligand in flow, 1:1 Langmuir fit
Experimental: The interaction of the receptor and the ligand was measured in kinetics assay using Wizard of Biacore3000. All the ligands were applied at a flow rate of 40 μL/min for 1 min, dissociated for 2 min, and then 50 mM NaOH and HBS-P buffer were applied at a flow rate of 100 μL/min for 15s and 60s to regenerate the ligands (50 mM NaOH and HBS-P buffer were applied at a flow rate of 100 μL/min for 10s and 30s to regenerate in the primary screening). The experimental data were fit to the 1:1 Langmuir association model in the analysis software of Biacore3000 to provide the specific kinetic constant.

LT28-171 (lymphotoxin) [4] = biological target: B1; assay: cell-based or functional assay

Molecule | EC50(ng/ml) of the neutralizing activity of the mutants against LT (LT28-171 (lymphotoxin) [1]) [ng/mL] | Enhancement of the neutralizing activity against LT (LT28-171 (lymphotoxin) [1]) [%] | EC50(ng/ml) of the neutralizing activity of the mutants (Example 9: against the cytotoxicity of TNFα) [2] [ng/mL] | Enhancement of the neutralizing activity against TNFα [2] [%] | neutralizing activity to TNFα relative to wild-type soluble TNFRp75: Fc (ENBREL from AMGEN) (times that of wild-type TNFRp75: Fc) [2] | Kd [3] [pM] | koff [3] [s⁻¹] | kon [3] [M⁻¹ s⁻¹] | EC50 of the neutralizing activity on LT (LT28-171 (lymphotoxin) [4]) [ng/mL]
TNFRp75 (E92A): Fc fusion protein | 7.93 | 291 | 6.34 | 130 |  |  |  |  | 
TNFRp75 (E92S, W89Y): Fc fusion protein | 6.28 | 368 | 12.2 | 133 |  |  |  |  | 
TNFRp75 (E92N): Fc fusion protein | 7.94 | 277 | 5.68 | 131 | 1.33 |  |  |  | 
TNFRp75 (E92H): Fc fusion protein | 3.74 | 1180 | 9.03 | 129 |  |  |  |  | 
TNFRp75 (E92N, W89F): Fc fusion protein | 7.56 | 308 | 1020 | 128 |  |  |  |  | 
B1 |  |  |  |  |  | 134 | 6.99e-07 | 5230 | 
B2 |  |  |  |  |  |  |  |  | 22.3
